Results: patent US20080064048A1, “Methods for Selecting Proteins that are Readily Presented as Antigens on Dendritic Cells” (Medical and Biological Laboratories, Co., Ltd., priority 2004, published 2008)

Experiments:
Sec61β = target: T1, Sec61β (Mus musculus, UniProt Q9CQS8); test: Co-immunoprecipitation of bOVA with anti-Sec61β; assay type: binding
T1 construct: endogenous in cells; host or cells: DC2.4 mouse dendritic cell line; bone marrow-derived dendritic cells
Procedure: (§1) 2×10^7 DC2.4 or BMDC cells were cultured for four hours in a medium containing 10 μM MG-132 in the presence of bOVA at 250 μg mL^−1. Cells were lysed in 20 mM HEPES pH7.6 containing 1% digitonin and protease inhibitors to collect biotin-labeled samples. The samples were cleared of impurities in advance using protein G sepharose (Amersham Pharmacia Biotech), and after incubation with antibodies for precipitation (anti-Sec61β, anti Sec61α, anti-VCP, anti-BiP, anti-PDI, anti-calreticulin, anti-TAP1, and anti-TAP2), the immunoprecipitates were collected using protein G. When chicken anti-CHIP antibody was used, immunoprecipitates were collected using a rabbit anti-IgY column (a person, MBL). The precipitated samples were analyzed by SDS-PAGE and Western blotting.

calreticulin = target: T2, calreticulin (Mus musculus, UniProt P14211); test: Co-immunoprecipitation of bOVA with anti-calreticulin; assay type: binding; settings: DC2.4 cells incubated with bOVA
T2 construct: Three types of ER resident proteins; endogenous in cells; host or cells: DC2.4 mouse dendritic cell line
T2 sequence (P14211 18-416): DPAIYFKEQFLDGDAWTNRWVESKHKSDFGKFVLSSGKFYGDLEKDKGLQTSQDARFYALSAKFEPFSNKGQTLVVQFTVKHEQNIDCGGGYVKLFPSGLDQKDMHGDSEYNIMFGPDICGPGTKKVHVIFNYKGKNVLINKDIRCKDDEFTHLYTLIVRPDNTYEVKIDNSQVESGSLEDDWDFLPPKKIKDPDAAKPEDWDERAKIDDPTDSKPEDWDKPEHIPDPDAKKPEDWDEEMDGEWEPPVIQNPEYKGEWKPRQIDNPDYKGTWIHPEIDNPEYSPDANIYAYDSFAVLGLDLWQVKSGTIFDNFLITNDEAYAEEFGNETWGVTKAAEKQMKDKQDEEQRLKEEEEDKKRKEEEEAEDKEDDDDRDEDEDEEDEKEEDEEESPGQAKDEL
Procedure: as §1

DC2.4 cells = test: Uptake of antigen into DC2.4 cells; assay type: cell-based, mouse; settings: CHIP-knocked-down DC2.4 (C4 and C4F-1)
From the text: When CHIP-knocked-down DC2.4 cells (C4 and C4F-1) were produced to examine the polyubiquitination of bOVA when CHIP is knocked down, the uptake of bOVA into the CHIP-knocked-down DC2.4 cells was only about 70% that of uptake into the parental DC2.4 cells (FIGS. 4d and 4f). Despite this fact, polyubiquitination of bOVA was reduced to 34% in CHIP-knocked-down cells (FIG. 4f). The decrease in the amount of accumulated OVA was slowed down in CHIP-knocked-down cells (FIGS. 4d and 4e).
Next, DC2.4 cells were incubated for a set amount of time with OVA in the presence or absence of lactacystin (LC), and OVA taken up into the cells was measured. OVA taken up into cells in the presence or absence of Hsp90 was measured similarly.

CHIP = target: T3, CHIP (Mus musculus, UniProt Q9WUD1); test: Co-immunoprecipitation of bOVA with anti-CHIP; assay type: binding; settings: DC2.4 cells incubated with bOVA
T3 construct: endogenous in cells; host or cells: DC2.4 mouse dendritic cell line
T3 sequence (Q9WUD1 1-304): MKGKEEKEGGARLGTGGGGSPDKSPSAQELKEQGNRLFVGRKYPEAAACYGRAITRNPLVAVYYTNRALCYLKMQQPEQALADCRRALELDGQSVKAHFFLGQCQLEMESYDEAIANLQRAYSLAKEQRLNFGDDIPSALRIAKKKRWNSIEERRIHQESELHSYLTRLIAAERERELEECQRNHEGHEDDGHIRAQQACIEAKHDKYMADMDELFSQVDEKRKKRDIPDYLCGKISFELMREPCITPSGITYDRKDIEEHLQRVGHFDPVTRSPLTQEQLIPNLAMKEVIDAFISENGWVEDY
Procedure: as §1

PDI = target: T4, PDI (Mus musculus, UniProt P09103); test: Co-immunoprecipitation of bOVA with anti-PDI; assay type: binding; settings: DC2.4 cells incubated with bOVA
T4 construct: Three types of ER resident proteins; endogenous in cells; host or cells: DC2.4 mouse dendritic cell line
T4 sequence (P09103 20-509): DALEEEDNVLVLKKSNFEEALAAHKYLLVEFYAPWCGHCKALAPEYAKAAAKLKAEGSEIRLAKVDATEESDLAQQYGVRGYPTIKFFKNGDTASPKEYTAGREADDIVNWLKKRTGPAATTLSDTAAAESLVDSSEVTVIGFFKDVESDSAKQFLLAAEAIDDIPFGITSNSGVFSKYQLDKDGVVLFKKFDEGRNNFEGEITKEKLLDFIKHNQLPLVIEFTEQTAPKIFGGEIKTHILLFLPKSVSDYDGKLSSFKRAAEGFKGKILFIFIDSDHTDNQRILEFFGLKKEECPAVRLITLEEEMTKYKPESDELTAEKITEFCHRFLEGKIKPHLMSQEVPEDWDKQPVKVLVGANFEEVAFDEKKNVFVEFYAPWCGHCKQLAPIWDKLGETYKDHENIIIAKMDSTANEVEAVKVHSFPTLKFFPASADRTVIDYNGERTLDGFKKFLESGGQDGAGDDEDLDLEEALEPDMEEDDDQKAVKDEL
Procedure: as §1

T1 sequence (Q9CQS8 2-96 limits assumed): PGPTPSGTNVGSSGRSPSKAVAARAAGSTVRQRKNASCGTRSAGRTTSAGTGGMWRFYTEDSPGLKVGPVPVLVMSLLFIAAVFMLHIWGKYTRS
T1 sequence (P61620 whole entry partner): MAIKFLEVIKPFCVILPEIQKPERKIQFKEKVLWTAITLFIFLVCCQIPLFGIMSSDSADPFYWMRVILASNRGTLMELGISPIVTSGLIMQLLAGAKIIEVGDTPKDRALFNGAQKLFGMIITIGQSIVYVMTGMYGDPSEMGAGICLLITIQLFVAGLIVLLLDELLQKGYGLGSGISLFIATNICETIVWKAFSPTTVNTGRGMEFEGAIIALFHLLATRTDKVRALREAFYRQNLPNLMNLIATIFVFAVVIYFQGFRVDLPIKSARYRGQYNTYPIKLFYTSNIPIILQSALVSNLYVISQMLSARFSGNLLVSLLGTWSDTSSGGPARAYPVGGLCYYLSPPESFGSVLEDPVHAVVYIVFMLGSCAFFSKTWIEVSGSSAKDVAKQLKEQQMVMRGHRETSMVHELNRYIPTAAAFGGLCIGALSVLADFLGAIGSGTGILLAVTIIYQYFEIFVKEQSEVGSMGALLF
T1 sequence (P60060 whole entry partner): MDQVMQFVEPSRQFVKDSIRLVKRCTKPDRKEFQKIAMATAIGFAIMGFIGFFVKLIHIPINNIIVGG

B1: bOVA: biotin-labeled OVA antigen (protein)
chain: GSIGAASMEFCFDVFKELKVHHANENIFYCPIAIMSALAMVYLGAKDSTRTQINKVVRFDKLPGFGDSIEAQCGTSVNVHSSLRDILNQITKPNDVYSFSLASRLYAEERYPILPEYLQCVKELYRGGLEPINFQTAADQARELINSWVESQTNGIIRNVLQPSSVDSQTAMVLVNAIVFKGLWEKAFKDEDTQAMPFRVTEQESKPVQMMYQIGLFRVASMASEKMKILELPFASGTMSMLVLLPDEVSGLEQLESIINFEKLTEWTSSNVMEERKIKVYLPRMKMEEKYNLTSVLMAMGITDVFSSSANLSGISSAESLKISQAVHAAHAEINEAGREVVGSAEAGVDAASVSEEFRADHPFLFCIKHIATNAVLFFGRCVSP
about 70%: uptake of bOVA into CHIP-knocked-down cells relative to parental DC2.4 cells (DC2.4 cells)
interacts: interaction with Sec61β (co-immunoprecipitation) (Sec61β; BMDCs) | interaction with Sec61β (co-immunoprecipitation) (Sec61β; DC2.4 cells incubated with bOVA) | interaction with calreticulin (co-immunoprecipitation) (calreticulin) | interaction with CHIP (co-immunoprecipitation) (CHIP) | interaction with PDI (co-immunoprecipitation) (PDI)
